The RNAGym collection of RNA variant scans (doi:10.1021/acssynbio.7b00057)

B1: Pistol ribozyme (parent)
chain: GGGUCGUUGUUCCAUAAUCGCGUGGAUAUGGCACGCAAGUUUCUACCGGGCACCGUAAAUGUCCGACUGGAGCCGUUCGGGCGGCUAUAAACAGACCUCAGGCCCGAAGCGUGGCGGCACCUGCCGCCGGUGGUAAAAAAGAUCGGAAGAGCACACGUCU

Variants of: B1
Assay: aptazyme ON/OFF ratio, guanine; higher = stronger switching; co-transcriptional cleavage with and without guanine

Variant	aptazyme ON/OFF ratio
U7A U8A G9C U10C U11G C12A C13G	1.03
U7A U8A G9C U10G U11G C12G	1.56
U7A U8A G9C U10G U11G C12U	1.39
U7A U8A G9C U10G U11G C12A	1.76
U7A U8A G9U U10C	2.34
U7A U8A G9U U10A	1.25
U7A U8A G9C U10G U11C C12A C13A	1.19
U7A U8A G9C U10G U11C C12A C13U	1.23
U7A U8A G9C U10G U11C C12A C13G	1.08
U7A U8A G9C U10C U11G C12U C13G	1.05
U7A U8A G9C U10C U11G C12U C13U	1.06
U7A U8A G9C U10C U11G C12U C13A	1.02
U7A U8A G9C U10A U11A C12U	1.19
U7A U8A G9C U10A U11A C12G	1.27
U7A U8A G9C U10A U11A C12A	1.13
U7A U8A G9U U10A U11A C12U C13A	1.2
U7A U8A G9U U10A U11A C12U C13U	1.22
U7A U8A G9U U10A U11A C12U C13G	1.22
U7A U8A G9C U10C C12G C13A	0.99
U7A U8A G9C U10C C12G C13U	1.06
U7A U8A G9C U10C C12G C13G	1.05

Variant	aptazyme ON/OFF ratio
U7A U8A G9U C12G C13A	1.19
U7A U8A G9U C12G C13U	1.47
U7A U8A G9U C12G C13G	1.27
U7A U8A G9C U11G C12U	1.71
U7A U8A G9C U11G C12A	1.1
U7A U8A G9C U11G C12G	1.4
U7A U8A G9U U10C C12U C13G	1.15
U7A U8A G9U U10C C12U C13A	1.19
U7A U8A G9U U10C C12U C13U	1.43
U7A U8A G9C U11A C12U C13U	1.2
U7A U8A G9C U11A C12U C13A	1.1
U7A U8A G9C U11A C12U C13G	1.14
U7A U8A G9U U10A U11C C12A	1.22
U7A U8A G9U U10A U11C C12G	1.18
U7A U8A G9U U10A U11C C12U	1.1
U7A U8A G9C U10G U11A	1.06
U7A U8A G9C U10G U11C	1.1
U7A U8A G9C U10G U11G	1.66
U7A U8A G9U C12A C13A	1.25
U7A U8A G9U C12A C13G	1.25
U7A U8A G9U C12A C13U	1.52

Variant	aptazyme ON/OFF ratio
U7A U8A G9C U10G U11A C13U	1.04
U7A U8A G9C U10G U11A C13A	1.04
U7A U8A G9C U10G U11A C13G	1.09
U7A U8A G9C U11C C12A C13G	1.07
U7A U8A G9C U11C C12A C13A	1.08
U7A U8A G9C U11C C12A C13U	1.05
U7A U8A G9U U10A U11G C13U	1.19
U7A U8A G9U U10A U11G C13G	1.13
U7A U8A G9U U10A U11G C13A	1.22
U7A U8A G9C U10G C12U C13A	1.22
U7A U8A G9C U10G C12U C13G	1.19
U7A U8A G9C U10G C12U C13U	1.32
U7A U8A G9C U10A U11C C12A	1.13
U7A U8A G9C U10A U11C C12G	1.16
U7A U8A G9C U10A U11C C12U	1.05
U7A U8A G9C U10C U11C C12G C13U	1.03
U7A U8A G9C U10C U11C C12G C13G	1.04
U7A U8A G9C U10C U11C C12G C13A	1.02
U7A U8A G9U U10A U11G	1.38
U7A U8A G9U U10A U11C	1.08
U7A U8A G9U U10A U11A	1.44

Variant	aptazyme ON/OFF ratio
U7A U8A G9C U10A U11A	1.21
U7A U8A G9C U10A U11G	1.24
U7A U8A G9C U10A U11C	1.04
U7A U8A G9C U10G U11G C12G C13A	1.2
U7A U8A G9C U10G U11G C12G C13G	1.13
U7A U8A G9C U10G U11G C12G C13U	1.21
U7A U8A G9C U10G	2.69
U7A U8A G9C U10C	1.8
U7A U8A G9U U10C C12A C13A	1.11
U7A U8A G9U U10C C12A C13U	1.16
U7A U8A G9U U10C C12A C13G	1.15
U7A U8A G9U U10C C12G C13U	1.4
U7A U8A G9U U10C C12G C13G	1.35
U7A U8A G9U U10C C12G C13A	1.31
U7A U8A G9C U10C U11A C12U C13A	1.03
U7A U8A G9C U10C U11A C12U C13G	1.1
U7A U8A G9C U10C U11A C12U C13U	1.09
U7A U8A G9U U10A C12G C13U	1.3
U7A U8A G9U U10A C12G C13G	1.18
U7A U8A G9U U10A C12G C13A	1.2
U7A U8A G9C U10A U11G C13A	1.17
